Laboratory results taken from the DeepSol protein solubility set.

Assay: soluble on expression in E. coli; label from the status in PepcDB or PDB records

**Q.** Which “soluble on expression in E. coli” value does the source give for “MEGVQEVEIDAPLSGWHPAEGEDASFSQSINYPASSVNMADDQNISAQIRGKIKNYAAAGKVQQGRLVVNGASMPQRIESDGSFARPYIFTEGSNSVQVISPDGQSRQKMQFYSTPGTGTIRARLRLVLSWDTDNTDLDLHVVTPDGEHAWYGNTVLKNSGALDMDVTTGYGPEIFAMPAPIHGRYQVYINYYGGRSETELTTAQLTLITDEGSVNEKQETFIVPMRNAGELTLVKSFDWLEHHHHHH” here?
**A.** Its value is “not soluble”.

**Q.** With “MGSSHHHHHHSSGLVPRGSHMTAEEMKATESGAQSAPLPMEGVDISPKQDEGVLKVIKREGTGTEMPMIGDRVFVHYTGWLLDGTKFDSSLDRKDKFSFDLGKGEVIKAWDIAIATMKVGEVCHITCKPEYAYGSAGSPPKIPPNATLVFEVELFEFKGEDLTEEEDGGIIRRIQTRGEGYAKPNEGAIVEVALEGYYKDKLFDQRELRFEIGEGENLDLPYGLERAIQRMEKGEHSIVYLKPSYAFGSVGKEKFQIPPNAELKYELHLKSFEKAKESWE” as the sequence, how does the “soluble on expression in E. coli” value read?
**A.** Its value is “soluble”.

**Q.** With “MGSDKIHHHHHHMNPKKLKQLKKRVKKQAGAPYIQQLMKYRDLFKDDPQILVLINNVLESDRLLAAGLAPQQLPVLEIPDDFQDHLFERINQQYAMGDPAGDAAWNQLSAALPKVDQLLRNFRDYIEDQYGMWAYISAPFLKDLADFTGSAPVLEVMAGNGYISKGLKRLHPGQPIYTTDSKDWTHETGNQTGRHPVTTIEALDAVSAFNKYAATIKYVIMAWSPDKLTIDWDLLQAMRQSPYDIPLIVIGEKYGATGSKQFWDHANYQDNEAVTKLNAHFRPFDLIHDHVYVVR” as the sequence, how does the “soluble on expression in E. coli” value read?
**A.** Its value is “not soluble”.

**Q.** For “SMQVERESISRLMQNYEKINVNEITRFSDFPLSKKTLKGLQEAQYRLVTEIQKQTIGLALQGKDVLGAAKTGSGKTLAFLVPVLEALYRLQWTSTDGLGVLIISPTRELAYQTFEVLRKVGKNHDFSAGLIIGGKDLKHEAERINNINILVCTPGRLLQHMDETVSFHATDLQMLVLDEADRILDMGFADTMNAVIENLPKKRQTLLFSATQTKSVKDLARLSLKNPEYVWVHEKA”, which “soluble on expression in E. coli” value is on record?
**A.** The value was “soluble”.

**Q.** With “MTTLEILRSGPLALVEDLGRAGLAHLGVGRSGAADRRSHTLANRLVANPDDWATVEVTFGGFSARVRGGDVDIAVTGADTDPTVNGIMVGTNSIHHVRDGQVISLGTPRAGLRTYLAVRGGVCVEPVLGSRSYDVMSAIGPSPLRAGDVLPVGEHTDDYPELDQAPVAAIEEHLVELRVVPGPRDDWLVDPDALVHTIWMASNRSDRVGMRLQGRPLQHRWPDRQLPGEGVTRGAIQVPPNGLPVILGPDHPITGSYPVVGVITDEDIDKVAQIRPGQYVRLHWARPRSRLPGQGVTQAW” as the sequence, how does the “soluble on expression in E. coli” value read?
**A.** Its value is “soluble”.

**Q.** For “MVMEDNESCASRVIFDALPTSQATMDRRERIKMEVFDEVLRRLRQSDIEDAHLPGFEDDLWNHFNRLPARYALDVNVERAEDVLMHKRLLHSAYDPQNRPAIEVHLVQVQPAGISADLDSTSNDAGHSSPTRKSIHPPPAFGSSPNLEALALAASLSQDEDADNSVHNNSLYSRPLHEITFSTEDKPKLLFQLTALLAELGLNIQEAHAFSTTDGYSLDVFVVDGWPYEETERLRISLEKEAAKIELQRPDFSEIIEQLQEIAKEVGEEGEEKKKSSTGLGGGIFAALRRSTTHH”, which “soluble on expression in E. coli” value is on record?
**A.** The value was “soluble”.

**Q.** Which “soluble on expression in E. coli” value does the source give for “MGHHHHHHSHMFEFKHIKAFDRAFADNPGPMVVFATPGMLHAGQSLQIFRKWAGNEKNMVIMPGYCVQGTVGHKILSGQRKLEMEGRQVLEVKMQVEYMSFSAHADAKGIMQLVGQAEPESVLLVHGEAKKMEFLKQKIEQELRVNCYMPANGETVTLPTSPSIPVGISLGLLKREMAQGLLPEAKKPRLLHGTLIMKDSNFRLVSSEQALKELGLAEHQLRFTCRVHLHDTRKEQETALRVYSHLKSVLKDHCVQHLPDGSVTVESVLLQAAAPSEDPGTKVLLVSWTYQDEELGSFSHLC” here?
**A.** Its value is “not soluble”.

**Q.** Which “soluble on expression in E. coli” value does the source give for “MAGDPNSMFSPQASAAYDDLHEGYATYTGSGYSGGAFLLDPIPSDMEITAINPADLNYGGVKAALAGSYLEVEGPKGKTTVYVTDLYPEGARGALDLSPNAFRKIGNMKDGKINIKWRVVKAPITGNFTYRIKEGSSRWWAAIQVRNHKYPVMKMEYEKDGKWINMEKMDYNHFVSTNLGTGSLKVRMTDIRGKVVKDTIPKLPESGTSKAYTVPGHVQFPELEHHHHHH” here?
**A.** Its value is “soluble”.

**Q.** Which “soluble on expression in E. coli” value does the source give for “MAFELSPSDLEPLLQGACFFGSGGGGTMISARHLAANFRKGDYYPTDKVRVVDVDEATDGDCVMVAYMGAPDAINQVQWPNGPVEAALAARQRLESQGRKLAYVVAPESGALGFVVASLVAAKLGLAVVDADGAGRAVPSLPMLTYAAAGVPPTPAFLAGESGLCVELGVRMPPPDGQRREDISTVVEQMLRPILTNPQFGQFGGLAMWMMSPAQLGGALPVRGTLSRALKLGRALQDGKVKTAEAMLDFLRRELDIKGKLLFGPATLASSEVSTAGGFDLGKVVLEDGERRCTVLYQNESLLAWDSALSHPLATAPDAISYFVEGEGQHVFSNGDLSGNDHGLDPSVRGRKAAVIALPAAAPLSEGLILQSFADELAQLGYLGPYAPVDAGREGARLEHHHHHH” here?
**A.** The value was “soluble”.

**Q.** Which “soluble on expression in E. coli” value does the source give for “MGSDKIHHHHHHENLYFQGMSVAHENARRIISDILGKQNIERVWFVGCGGSLTGFWPGKYFLDCEASKLAVGYITSNEFVHATPKALGKNSVVILASQQGNTAETVAAARVAREKGAATIGLVYQPDTPLCEYSDYIIEYQWARYPETVDPAQQKAAYSLWLALEILAQTEGYAQYDELVSAFGRFSDVVHGAQRQVQEDAQRFAAEWKDEKVVYMMGSGPSFGAAHQESICILLEMQWINSASIHSGEYFHGPFEITEPGTPFILLQSSGRTRPLDDRAIRFIERYQGKLQLIDADKLGIQDLSTDVGEYFCGLLHNCVLDVYNLALATARNHPLTTRRYMWKVEY” here?
**A.** The value was “soluble”.

**Q.** Which “soluble on expression in E. coli” value does the source give for “MGSDKIHHHHHHMIGLNCKPLYIENAENQLYNPTLNIKTTMTYLETAAQFYSEVAQTPQVGLCCVQSTPLQLPGLKIPLSMQEMNYGCGTTVHPTELGKQPTVLYVGVGGGLEALQFAYFSRRPGAVIAVDPVAAMREAAARNLEMALTDNPWFESSFVEIREGDAFNLPVADGSVDIVAQNCLFNIFEPEDLTRALKEAYRVLKCGGRLQMSDPIATSPIPAHLQQDERLRAMCLSGALTYEEYTQRIIDAGFGQIEIRARRPYRLLDSQTYNLETHLLLESLDSVSFKVPIPEDGACIFTGKTAIYAGCEDFFDDKAGHILQRGIPATVCDKTAAKLATVKPKEVIITDSTWHYNGGGCC” here?
**A.** The value was “not soluble”.

**Q.** For “MTPKEIFESNRPGSKDVAWCPGCGNFGIRNILIEAFSELNLKPTEVVIISGIGQAAKMPHYINVNGYHTLHGRAIPIATAVKAANPSLTVIAEGGDGDMYAEGGNHLLHAIRRNPDITVLIHNNQIYGLTKGQASPTTPIGMKTPTQPWGVFEEPLNPIALAIALGASFVARTFVGYFKESVEIIKQAIKHKGLAIVDIFQPCVSFNKLNTYSWYKEHTYWMKDHDPHDRIEAFKRAIETDPLPLGIFYINEKPTFEEQVPAYKRDKRPLWMRDPKIELVKKFFESKR”, which “soluble on expression in E. coli” value is on record?
**A.** The value was “not soluble”.

**Q.** Which “soluble on expression in E. coli” value does the source give for “MTPILTDRPALARHRTRACRAPALFLHEEAAREVEERLSEVNRRFTAPAVVTAFPEVWRDRLPNARIVTDAEELALDPGAHDLVIHALAMHWSNDPVGQLVQSRRALRPDGLFLGLLFGGRTLSELRIALAEAEAAVTGGLSPRVLPMAEIRDLGALLQRAGFALPVADSLVREVRYRDTLHLMRDLRAMGETNALEARLRRPSRRALFAEAEARYPRRADDRIVASFEIICLTGWAPHESQQKPLRPGSAARSLAEALAAARKDGPGDG” here?
**A.** The value was “not soluble”.

**Q.** Which “soluble on expression in E. coli” value does the source give for “MGSDKIHHHHHHMFPAGEMFFIESIRNVRNQIKDEKLLEDIKAFIAQEAFHSREHKMLNNHLIHSNYPEVVEIEAQTKARLDKLRQLSAVEQVAATVVMEHYTATLARLLLTDSLIKAKTTQESRNLWEWHALEELEHKSVAFDVLNAIGGNSSKNRKVALARVAKLITPIIFKYWIKILKRKDINFTLKQLKDGIYLGFGGINRVGILSKAFVDMLDVRAENFDPLNMQTEQLEAEFREKLFGQAGFLRDYLS” here?
**A.** The value was “not soluble”.

**Q.** Which “soluble on expression in E. coli” value does the source give for “MSLGNNYAAKVNDQEISRGQFENAFNSERNRMQQQLGDQYSELAANEGYMKTLRQQVLNRLIDEALLDQYARELKLGISDEQVKQAIFATPAFQVDGKFDNSRYNGILNQMGMTADQYAQALRNQLTTQQLINGVAGTDFMLKGETDELAALVAQQRVVREATIDVNALAAKQPVTEQEIASYYEQNKNNFMTPEQFRVSYIKLVAATMQQPVSDADIQSYYDQHQDQFTQPQRTRYSIIQTKTEDEAKAVLDELNKGGDFAALAKEKSADIISARNGGDMGWLEDATIPDELKNAGLKEKGQLSGVIKSSVGFLIVRLDDIQPAKVKSLDEVRDDIAAKVKHEKALDAYYALQQKVSDAASNDTESLAGAEQAAGVKATQTGWFSKDNLPEELNFKPVADAIFNGGLVGENGASGINSDIITVDGDRAFVLRVSEHKPEAVKPLADVQEQVKALVQHNKAEQQAKVDAEKLLVDLKAGKGAEAMQAAGLKFGEPKTLSRSGRDPISQAAFALPLPAKDKPSYGMATDMQGNVVLLALDEVKQGSMPEDQKKAMVQGITQNNAQIVFEALMSNLRKEAKIKIGDALEQQEGHHHHHH” here?
**A.** Its value is “soluble”.

**Q.** With “MTTRILTGITPTGTPHLGNYAGAIRPAILASRRSDVDSFYFLADYHALIKCDDPARIQRSRLEIAATWLAGGLDVERATFYRQSDIPEIPELTWLLTCVSAKGLLNRAHAYKAAVDRNVEAGEDPDAGVTMGLYSYPVLMAADILMFNAHKIPVGRDQVQHVEMARDIGQRFNHLFGNGREFFVLPEAVIEENVATLPGLDGRKMSKSYDNTIPLFSPSRQLKDAIARIVTDSRAPGEPKDPDSSHLFLLYSAFASAEQVAAFRQELLEGLAWGEAKQRLFQLLDNELGEARERYQALIAKPDDIEDILLAGAAKARRIATPFIAELREAVGLRSLREPLKSAESGKKKAAKAARLVSFRDDDGSFRFRLLDAAGEQLLLSRAFADGKAAGAVSKRLLAGETADLRAEGNAFGLWLDGEAVAQSPAFADAAARDAAIERTREALAPQ” as the sequence, how does the “soluble on expression in E. coli” value read?
**A.** Its value is “not soluble”.

**Q.** Which “soluble on expression in E. coli” value does the source give for “MGHHHHHHSHMTLRCLEPSGNGGEGTRSQWGTAGSAEEPSPQAARLAKALRELGQTGWYWGSMTVNEAKEKLKEAPEGTFLIRDSSHSDYLLTISVKTSAGPTNLRIEYQDGKFRLDSIICVKSKLKQFDSVVHLIDYYVQMCKDKRTGPEAPRNGTVHLYLTKPLYTSAPSLQHLCRLTINKCTGAIWGLPLPTRLKDYLEEYKFQV” here?
**A.** The value was “not soluble”.

**Q.** For “MGSDKIHHHHHHAEITLLKQDPQAGDPLSRLNFTVGGSIRPQFNMMTGDGDKGSYKRNGFDGGTRFRFAADYYLFDDISWISYYELGVNIPALFDWDNHYAEGANNTTRRMLYTGLKSDTWGTLTYGQQNSIYYDVVGVKTDIWDYDMIGQAPGNGINGDYDGSYRSRNMLKYKKTVGDVDLYGSYLFEDSEYLPGNGLRYKRKGGGSVGADYHIMKDLTWGTAWNYTRAEMRDPSSADSKTYDQNIVGTALSWTPDNWTFSFGGGWYQNFLTTKKTDVHNYFAGDAWGIEYFAGYKFPINQYAVKSIQPYFMGDRLEYVNGRNYQRIDNGLGISFQLDYGFRVDYEHVFTSSTDNLGDMNLVRLRYDF”, which “soluble on expression in E. coli” value is on record?
**A.** The value was “not soluble”.

**Q.** For “MNSEIELPVQKQLEAYNARDIDAFMAWWADDCQYYAFPATLLAGNAAEIRVRHIERFKEPDLYGELLTRVIVGNVVIDHETVTRNFPEGKGEVDVACIYEVENGRIAKAWFKIGEPRIVSQKS”, which “soluble on expression in E. coli” value is on record?
**A.** The value was “soluble”.
